B3: 5A6/22E7 knob in holes, hingeless bispecific antibody (anti-FcγRIIB/anti-FcεRI) (bispecific antibody)
chain 1: EVKLEESGGGLVQPGGSMKLSCVASGFTFSDAWMDWVRQSPERGLEWVAEIRSKPNNHATYYAESVKGRFTISRDDSKSSVYLQMTSLRPEDTGIYYCTHFDYWGQGTTLTVSSAKTTGPSVFPLAPSSKSTSGGTAALGCLVKDYFPEPVTVSWNSGALTSGVHTFPAVLQSSGLYSLSSVVTVPSSSLGTQTYICNVNHKPSNTKVDKKVEPKSCDKTHTSPPSPAPELLGGPSVFLFPPKPKDTLMISRTPEVTCVVVDVSHEDPEVKFNWYVDGVEVHNAKTKPREEQYNSTYRVVSVLTVLHQDWLNGKEYKCKVSNKALPAPIEKTISKAKGQPREPQVYTLPPSRDELTKNQVSLWCLVKGFYPSDIAVEWESNGQPENNYKTTPPVLDSDGSFFLYSKLTVDKSRWQQGNVFSCSVMHEALHNHYTQKSLSLSPEL
chain 2: DIQMTQSPSSLSASLGERVSLTCRASQEISGYLSWFQQKPDGTIKRLIYAASALDSGVPKRFSGSWSGSDYSLTISSLESEDFADYYCLQYVSYPLTFGAGTKLELKRTVAAPSVFIFPPSDEQLKSGTASVVCLLNNFYPREAKVQWKVDNALQSGNSQESVTEQDSKDSTYSLSSTLTLSKADYEKHKVYACEVTHQGLSSPVTKSFNRGEC
chain 3: EVKLVESGGGLVKPGGSLKLSCAASGFTFSSYGMSWVRQTPEKRLEWVATISGGNNYTFYPDNLKGRFTISRDNAKNILYLQISSLRSVDTALYYCASLWYRASFAYWGQGTLVTVSSAKTTGPSVFPLAPSSKSTSGGTAALGCLVKDYFPEPVTVSWNSGALTSGVHTFPAVLQSSGLYSLSSVVTVPSSSLGTQTYICNVNHKPSNTKVDKKVEPKSCDKTHTSPPSPAPELLGGPSVFLFPPKPKDTLMISRTPEVTCVVVDVSHEDPEVKFNWYVDGVEVHNAKTKPREEQYNSTYRVVSVLTVLHQDWLNGKEYKCKVSNKALPAPIEKTISKAKGQPREPQVYTLPPSRDELTKNQVSLSCAVKGFYPSDIAVEWESNGQPENNYKTTPPVLDSDGSFFLVSKLTVDKSRWQQGNVFSCSVMHEALHNHYTQKSLSLSPEL
chain 4: DIMMTQSPSSMYASLGERVTITCKASQDINSYLSWFQQKPGKSPKTLISRANRLVDGVPSRFSGSGSGQDYSLTISSLEYEDMGIYYCLQYDDFPFTFGGGTKVEIKRTVAAPSVFIFPPSDEQLKSGTASVVCLLNNFYPREAKVQWKVDNALQSGNSQESVTEQDSKDSTYSLSSTLTLSKADYEKHKVYACEVTHQGLSSPVTKSFNRGEC

Experiment [1] deals with T1, GST-huFcγRIIB (human FcγRIIB extracellular domain-Gly-His6-GST fusion protein) (human, UniProt P08515 1-218 = GST).
T1 construct: Expressed in 293 cells; also called FcγRIIB-His6-GST; huFcγRIIB-His6-GST
Description: sandwich (bridging) ELISA, FIG. 29: plate FcγRIIB-His6-GST, antibody titrated, then huFcεRI-ECD-Fc and IgE-biotin/streptavidin-HRP; signal needs both arms. On the technique in general: ELISA stands for enzyme-linked immunosorbent assay.

Experiment [2] addresses T2, huFcεRI-ECD-Fc (IgE receptor fusion) (human, UniProt P12319 26-205).
T2 construct: extracellular domain; not shown: Fc part
T2 sequence (looked up): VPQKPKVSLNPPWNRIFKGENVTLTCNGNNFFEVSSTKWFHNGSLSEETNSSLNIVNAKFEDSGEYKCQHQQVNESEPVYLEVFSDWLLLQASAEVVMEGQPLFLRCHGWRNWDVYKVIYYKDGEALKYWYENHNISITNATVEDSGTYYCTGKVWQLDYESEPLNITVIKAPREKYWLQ
Description: sandwich (bridging) ELISA, FIG. 30: plate huFcεRI-ECD-Fc, antibody titrated, then FcγRIIB-His6-GST and anti-GST-biotin/streptavidin-HRP; signal needs both arms. Here is the method: ELISA plates were coated overnight at 4° C. with 100 μl of a 1 μg/ml solution of huFcεRI-ECD-Fc in PBS, pH 7.4. The plate was washed with PBS and blocked with 1% Casein blocker in PBS. The wells were washed three times with PBS/0.05% TWEEN®. Serial dilutions of 5A6/22E7 bispecific antibodies, 5A6 antibodies, or 22E7 antibody were prepared in ELISA Diluent buffer and added to wells at 100 μl/well of each dilution. The plates were incubated for 1 hour at room temperature. After washing the plate three times with PBS/0.05% TWEEN®, FcγRIIB-His₆-GST was added to each well at 100 μl of 1 μg/ml in the presence of 10 μg/ml of CD4-IgG to block FcγRIIB-His₆-GST binding to Fc portion of the test antibody, huFcεRI-ECD-Fc and secondary antibody (anti-GST-biotin) and incubated for 1 hour at room temperature. After washing the plate three times with PBS/0.05% TWEEN®, 100 μl of 1 μg/ml anti-GST-biotin was added to each well and incubated for 1 hour at room temperature. The plate was washed with PBS/0.05% TWEEN® and incubated 30 minutes with 100 μl/well of 1:2000 Streptavidin-HRP in Elisa diluent buffer. After washing with PBS/0.05% TWEEN®, the plate was incubated 5 minutes with 100 μl TMB substrate. The reaction was quenched with 100 μl/well stop solution and the plate read at 630 nm. […]

The target in experiment [3] is T1, GST-huFcγRIIB (human FcγRIIB …). The experiment can be described thus: ELISA, plate-coated GST fusion (FIG. 6).
The target in experiment [4] is T3, native human FcγRIIA (CD32A) on K562 erythroleukemia cells (human, UniProt P12318 34-317).
T3 construct: also called huFcγRIIA (CD32A); native FcγRIIA
T3 sequence: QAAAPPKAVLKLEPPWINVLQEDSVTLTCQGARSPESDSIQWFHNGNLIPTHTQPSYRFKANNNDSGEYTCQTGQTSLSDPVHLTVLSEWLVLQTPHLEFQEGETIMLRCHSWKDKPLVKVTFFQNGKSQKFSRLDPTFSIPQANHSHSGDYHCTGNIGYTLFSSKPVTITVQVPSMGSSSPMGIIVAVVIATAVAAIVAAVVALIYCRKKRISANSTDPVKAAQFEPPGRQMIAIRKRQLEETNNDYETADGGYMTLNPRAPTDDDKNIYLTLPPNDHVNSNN
The experiment can be described thus: indirect immunofluorescence, flow cytometry on K562 cells (FIG. 16). From the text: Indirect immunofluorescence binding analysis of 5A6 MAb to native FcγRIIA expressed on K562 erythroleukemia cells (ATCC No. CCL-243) is presented in FIG. 16. Separated aliquots of K562 cells were stained with either a mIgG1 isotype control (mopc 21), 5A6 (anti-human FcγRIIB) monoclonal antibody or Medarex 4.3 MAb (anti-human FcγRIIA/B) monoclonal antibody.

Experiment [5] concerns the target B3. Description: flow cytometry, RBL huFcεRI+huFcγRIIB1 and +huFcγRIIB2 cells (FIGS. 40, 41).
In experiment [6] the target is T2, huFcεRI-ECD-Fc (IgE receptor fusion). Description: sandwich (bridging) ELISA, FIG. 30: plate huFcεRI-ECD-Fc, antibody titrated, then FcγRIIB-His6-GST and anti-GST-biotin/streptavidin-HRP; signal needs both arms, so the value does not measure 22E7 on FcεRI alone.

Values joined by “and” are separate entries in the source; they are usually repeats but may differ in a detail not shown here. Equal entries are not always repeated.

The values that follow come from patent US20090087428A1 (Genentech, published 2009).

The term IC50 denotes the point on the concentration scale where inhibition reaches its midpoint. As usually defined, the EC50 is the concentration that produces a half-maximal response. Higher therefore signals lower potency in that assay.

B1: 5A6/22E7 knob in holes, wild type hinge, bispecific antibody (bispecific antibody)
chain 1: EVKLEESGGGLVQPGGSMKLSCVASGFTFSDAWMDWVRQSPERGLEWVAEIRSKPNNHATYYAESVKGRFTISRDDSKSSVYLQMTSLRPEDTGIYYCTHFDYWGQGTTLTVSSAKTTGPSVFPLAPSSKSTSGGTAALGCLVKDYFPEPVTVSWNSGALTSGVHTFPAVLQSSGLYSLSSVVTVPSSSLGTQTYICNVNHKPSNTKVDKKVEPKSCDKTHTCPPCPAPELLGGPSVFLFPPKPKDTLMISRTPEVTCVVVDVSHEDPEVKFNWYVDGVEVHNAKTKPREEQYNSTYRVVSVLTVLHQDWLNGKEYKCKVSNKALPAPIEKTISKAKGQPREPQVYTLPPSRDELTKNQVSLWCLVKGFYPSDIAVEWESNGQPENNYKTTPPVLDSDGSFFLYSKLTVDKSRWQQGNVFSCSVMHEALHNHYTQKSLSLSPEL
chain 2: DIQMTQSPSSLSASLGERVSLTCRASQEISGYLSWFQQKPDGTIKRLIYAASALDSGVPKRFSGSWSGSDYSLTISSLESEDFADYYCLQYVSYPLTFGAGTKLELKRTVAAPSVFIFPPSDEQLKSGTASVVCLLNNFYPREAKVQWKVDNALQSGNSQESVTEQDSKDSTYSLSSTLTLSKADYEKHKVYACEVTHQGLSSPVTKSFNRGEC
chain 3: not shown
chain 4: DIMMTQSPSSMYASLGERVTITCKASQDINSYLSWFQQKPGKSPKTLISRANRLVDGVPSRFSGSGSGQDYSLTISSLEYEDMGIYYCLQYDDFPFTFGGGTKVEIKRTVAAPSVFIFPPSDEQLKSGTASVVCLLNNFYPREAKVQWKVDNALQSGNSQESVTEQDSKDSTYSLSSTLTLSKADYEKHKVYACEVTHQGLSSPVTKSFNRGEC
Consider B1, for which the IC50 in experiment [1] is 0.0552 µg/mL and 0.076 µg/mL; in experiment [2] it was 0.49 µg/mL and 0.291 µg/mL.

B2: Antibody 5A6.2.1 (anti-human FcγRIIB monoclonal antibody) (antibody)
VH: EVKLEESGGGLVQPGGSMKLSCVASGFTFSDAWMDWVRQSPERGLEWVAEIRSKPNNHATYYAESVKGRFTISRDDSKSSVYLQMTSLRPEDTGIYYCTHFDYWGQGTTLTVSSAKTTGPSVFPLAPSSKSTSGGTAALGCLVKDYFPEPVTVSWNSGALTSGVHTFPAVLQSSGLYSLSSVVTVPSSSLGTQTYICNVNHKPSNTKVDKKVEPKSCDKTHT
VL: DIQMTQSPSSLSASLGERVSLTCRASQEISGYLSWFQQKPDGTIKRLIYAASALDSGVPKRFSGSWSGSDYSLTISSLESEDFADYYCLQYVSYPLTFGAGTKLELKRTVAAPSVFIFPPSDEQLKSGTASVVCLLNNFYPREAKVQWKVDNALQSGNSQESVTEQDSKDSTYSLSSTLTLSKADYEKHKVYACEVTHQGLSSPVTKSFNRGEC
notes: 5A6(A) and 5A6(B) are two protein preps of 5A6; also called 5A6 MAb; 5A6 mIgG1
As to B2, in experiment [3], the response was half-maximal at 0.06 nM (EC50). The binding result in experiment [4] is reported as “no binding”.

For B3, the results for the IC50 in experiment [1] and in experiment [2] were 0.023 µg/mL and 0.0765 µg/mL, respectively.

B4: huFcεRIα extracellular domain (huFcεRIα ECD) (receptor, human, UniProt P12319 26-205, looked up)
chain: VPQKPKVSLNPPWNRIFKGENVTLTCNGNNFFEVSSTKWFHNGSLSEETNSSLNIVNAKFEDSGEYKCQHQQVNESEPVYLEVFSDWLLLQASAEVVMEGQPLFLRCHGWRNWDVYKVIYYKDGEALKYWYENHNISITNATVEDSGTYYCTGKVWQLDYESEPLNITVIKAPREKYWLQ
notes: extracellular domain; also called huFcεRI ECD
Regarding B4, in experiment [5], the “ECD to bispecific ratio at which binding to cells is decreased (complete blocking only with both ECDs)” value was 10 ratio ECD:bispecific.

B5: huFcγRIIB extracellular domain with C-terminal His6 tag (huFcγRIIB ECD) (receptor)
chain: TPAAPPKAVLKLEPQWINVLQEDSVTLTCRGTHSPESDSIQWFHNGNLIPTHTQPSYRFKANNNDSGEYTCQTGQTSLSDPVHLTVLSEWLVLQTPHLEFQEGETIVLRCHSWKDKPLVKVTFFQNGKSKKFSRSDPNFSIPQANHSHSGDYHCTGNIGYTLYSSKPVTITVQAPHHHHHH
notes: Whole entry named; only the extracellular domain is in the construct; Baculovirus expression
In the case of B5, the “ECD to bispecific ratio at which binding to cells is decreased (complete blocking only with both ECDs)” value in experiment [5] was 10 ratio ECD:bispecific.

B6: 22E7 MAb (anti-human FcεRI monoclonal antibody) (antibody)
chain 1: EVKLVESGGGLVKPGGSLKLSCAASGFTFSSYGMSWVRQTPEKRLEWVATISGGNNYTFYPDNLKGRFTISRDNAKNILYLQISSLRSVDTALYYCASLWYRASFAYWGQGTLVTVSS
chain 2: DIMMTQSPSSMYASLGERVTITCKASQDINSYLSWFQQKPGKSPKTLISRANRLVDGVPSRFSGSGSGQDYSLTISSLEYEDMGIYYCLQYDDFPFTFGGGTKVEIK
Consider B6, for which the IC50 in experiment [1] came out at 100 µg/mL; in experiment [6], 2800 µg/mL.
